From patent US20120004133A1

Biological target: Ang II type 1 receptor on rat vascular smooth muscle cells (rat) (UniProt P25095)
Experiment: cell-based or functional assay

Chain of UniProt P25095 (P25095 whole entry): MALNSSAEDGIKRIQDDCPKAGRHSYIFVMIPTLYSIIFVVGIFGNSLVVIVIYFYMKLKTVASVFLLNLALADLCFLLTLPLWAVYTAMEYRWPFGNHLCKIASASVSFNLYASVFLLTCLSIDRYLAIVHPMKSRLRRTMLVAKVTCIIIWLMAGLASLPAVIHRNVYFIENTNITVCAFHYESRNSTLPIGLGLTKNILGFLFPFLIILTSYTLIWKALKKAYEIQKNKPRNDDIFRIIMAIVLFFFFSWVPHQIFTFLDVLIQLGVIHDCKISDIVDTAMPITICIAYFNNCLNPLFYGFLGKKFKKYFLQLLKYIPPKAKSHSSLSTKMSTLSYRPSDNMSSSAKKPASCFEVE

MFG-E8 protein level in old VSMC (Western blot): 40%
Substance: [Sar1, Gly8]-Ang II acetate hydrate (peptide)
